The source of these data is PMC6771245, “CMKLR1-targeting peptide tracers for PET/MR imaging of breast cancer” (Theranostics, 2019).

*1 amine or outer side, *2 acyl side, *3 side chain or, on linkers, in order; H or OH if unused. Where a SMILES comes first, the peptide text is derived from it. [ ]: non-standard residue; d: D form. The star is where a group is joined. X1 = O=C(O)CN1CCN(CC(=O)O)CCN(CC(=O)NCCCOCCOCCOCCCN*)CCN(CC(=O)O)CC1; DOTA = O=C(O)CN1CCN(CC(=O)O)CCN(CC(=O)*)CCN(CC(=O)O)CC1; NH(CH2)9CO = O=C(CCCCCCCCCN[*:1])[*:2]; Hyp = O=C(O)[C@@H]1C[C@@H](O)CN1; Tic = O=C(O)[C@@H]1Cc2ccccc2CN1; Cha = N[C@@H](CC1CCCCC1)C(=O)O; Cit = NC(=O)NCCC[C@H](N)C(=O)O; Suc = O=C(CCC(=O)[*:2])[*:1]; Octanoyl = CCCCCCCC(=O)*; Ahx = NCCCCCC(=O)O

Data set [1] is described as follows: in vivo. To be noted: female, mouse, iv, 10 MBq, total radioactivity. The source says: (§1) For in vivo experiments, at least 8-week-old female athymic NMRI-Foxn1^nu /Foxn1^nu mice (Janvier Labs, Saint-Berthevin, France) were used. Animal care followed institutional guidelines and all experiments were approved by local animal research authorities. For the generation of tumor xenografts, 5 x 10^6 cells of both DU4475 and A549 cells were inoculated subcutaneously into the right and left shoulder, respectively (1:1 phosphate-buffered saline [PBS]/Matrigel Basement Membrane Matrix High Concentration, Corning, Corning, USA). Part of the animals received SW13 lung cancer cells as a CMKLR1-negative control tumor. For the analysis of biodistribution, only data of […] and A549 xenograft tumors are used. Tumors were allowed to grow for two to four weeks (tumor volume > 100 mm^3) after cell inoculation.
(§2) Radiolabeling experiments were performed on a Modular Lab PharmTracer synthesis module (Eckert & Ziegler, Berlin, Germany) which allows fully automated cassette-based labeling of gallium tracers utilizing a pharmaceutical grade ^68Ge/^68Ga generator (GalliaPharm, 1.85 GBq, good manufacturing practice [GMP]-certified; Eckert & Ziegler GmbH, Berlin, Germany). Cassettes were GMP-certified and sterile. They were used without pre-conditioning of the cartridges. The gallium generator was eluted with aqueous HCl (0.1 M, 7 mL) and the eluate was purified on an ion-exchange cartridge followed by elution using 1 mL of 0.1 M HCl in acetone. The peptide-DOTA conjugate (50 µg from a stock solution 1 mg/mL in 10% dimethyl sulfoxide [DMSO] in water) was mixed with 500 µL 0.1 M HEPES buffer (pH 7) and heated for 500 seconds at 95 °C. After the reaction, the mixture was passed through a C-18 cartridge for purification and the tracer was eluted from the cartridge with ethanol. In order to control the quality of radiolabeling, the radiochemical yield, purity, and specific activity for all five peptide-DOTA conjugates and each individual labeling experiment was determined. Overall, a radiochemical yield of 82.1% ± 6.7%, a radiochemical purity of 98.1 ± 4.6% and a molar activity of 8.6 GBq/µmol ± 2.7 GBq/µmol was achieved (Table S1). Before animal injection, the activity was equilibrated to neutral pH using 1 M sodium hydrogen carbonate. It was further diluted with saline to ≤ 10% ethanol.
(§3) Tumor-bearing mice were injected with approximately 10 MBq of ^68Ga-labeled DOTA-peptide or 1 MBq of ^177Lu-labeled DOTA-peptide to the tail vein via a catheter. Mice were sacrificed and dissected one or two hours after injection. Tumor, blood, stomach, pancreas, small intestine, colon, liver, spleen, kidney, heart, lung, muscle and femur samples were weighed and uptake of radioactivity was measured by a gamma counter. To determine the effect of unlabeled ligand on the tumor uptake, 200 nmol CG34 peptide (100-fold excess) was co-injected.

The test system of data set [2] is DU4475/A549 xenograft model. Briefly: in vivo. To be noted: mouse.
From the text: as §1, §2, §3

The mark [3] stands for this setting: athymic NMRI-Foxn1^nu/Foxn1^nu, liver uptake.
The mark [4] stands for this setting: athymic NMRI-Foxn1^nu/Foxn1^nu, A549 tumor uptake.
The mark [5] stands for this setting: athymic NMRI-Foxn1^nu/Foxn1^nu, DU4475 tumor uptake.
The mark [6] stands for this setting: athymic NMRI-Foxn1^nu/Foxn1^nu, blood uptake.
The mark [7] stands for this setting: athymic NMRI-Foxn1^nu/Foxn1^nu, heart uptake.
Where [8] appears, read: athymic NMRI-Foxn1^nu/Foxn1^nu, kidney uptake.
Setting [9] is: athymic NMRI-Foxn1^nu/Foxn1^nu, lung uptake.
The mark [10] stands for this setting: athymic NMRI-Foxn1^nu/Foxn1^nu, muscle uptake.
The mark [11] stands for this setting: athymic NMRI-Foxn1^nu/Foxn1^nu, spleen uptake.
Where [12] appears, read: athymic NMRI-Foxn1nu/Foxn1nu, colon uptake.
Setting [13] is: athymic NMRI-Foxn1nu/Foxn1nu, femur uptake.
Where [14] appears, read: athymic NMRI-Foxn1nu/Foxn1nu, muscle uptake.
[15] abbreviates: athymic NMRI-Foxn1nu/Foxn1nu, pancreas uptake.
The mark [16] stands for this setting: athymic NMRI-Foxn1nu/Foxn1nu, small intestine uptake.
The mark [17] stands for this setting: athymic NMRI-Foxn1nu/Foxn1nu, spleen uptake.
Where [18] appears, read: athymic NMRI-Foxn1nu/Foxn1nu, stomach uptake.
The mark [19] stands for this setting: athymic NMRI-Foxn1nu/Foxn1nu, tumor-to-blood ratio.
[20] abbreviates: athymic NMRI-Foxn1nu/Foxn1nu, tumor-to-kidney ratio.
Where [21] appears, read: athymic NMRI-Foxn1nu/Foxn1nu, tumor-to-liver ratio.
Where [22] appears, read: athymic NMRI-Foxn1nu/Foxn1nu, tumor-to-muscle ratio.
Setting [23] is: athymic NMRI-Foxn1nu/Foxn1nu, tumor-to-pancreas ratio.

One may read the tissue uptake as the percentage of the injected dose found per gram of tissue. For the compound `CSCC[C@H](NC(=O)CNC(=O)[C@@H]1CCCN1C(=O)[C@H](CC1CCCCC1)NC(=O)[C@H](Cc1ccc(O)cc1)NC(=O)CCCCCNC(=O)CN1CCN(CC(=O)O)CCN(CC(=O)O)CCN(CC(=O)O)CC1)C(=O)N[C@@H](Cc1ccc(O)cc1)C(=O)N[C@@H](C)C(=O)N[C@@H](Cc1ccccc1)C(=O)N[C@H](Cc1ccccc1)C(=O)O` [[^68Ga]Ga-DOTA-AHX-CG36, metal not drawn] ({DOTA-Ahx}-Y[Cha]PGMYAF[dF]-OH), in data set [1] (setting [3]), the tissue uptake at 1 h is 6.4 %ID/g and the tissue uptake at 2 h is 4.9 %ID/g. Besides, the “difference in uptake between target-positive and target-negative tumor” value in data set [2] is “no clear difference in uptake between target-positive and target-negative tumor”.
Consider `C[C@@H](NC(=O)[C@H](Cc1ccccc1)NC(=O)[C@H](CCCNC(N)=O)NC(=O)CNC(=O)[C@@H]1C[C@@H](O)CN1C(=O)[C@H](CC1CCCCC1)NC(=O)[C@H](Cc1ccc(O)cc1)NC(=O)CCCCCCCCCNC(=O)CN1CCN(CC(=O)O)CCN(CC(=O)O)CCN(CC(=O)O)CC1)C(=O)N1Cc2ccccc2C[C@H]1C(=O)N[C@@H](CO)C(=O)O` [[^68Ga]Ga-DOTA-ADX-CG34, metal not drawn] ({DOTA}-[NH(CH2)9CO]Y[Cha][Hyp]G[Cit]F[dA][Tic]S-OH), for which the tissue uptake at 1 h in data set [1] (setting [4]) amounted to 2.7 %ID/g; in data set [1] (setting [5]), 6.2 %ID/g; in data set [1] (setting [6]), 2.8 %ID/g; in data set [1] (setting [7]), 2.2 %ID/g; in data set [1] (setting [8]), 10.3 %ID/g; in data set [1] (setting [3]) it was 14.2 %ID/g. For the same compound, the tissue uptake at 1 h worked out at 7.1 %ID/g in data set [1] (setting [9]); 1.1 %ID/g in data set [1] (setting [10]); 7.8 %ID/g in data set [1] (setting [11]); 3.2 %ID/g in data set [1] (setting [12]); 1.3 %ID/g in data set [1] (setting [13]); 1.7 %ID/g in data set [1] (setting [15]). The tissue uptake at 1 h in data set [1] (setting [16]) was found to be 3.8 %ID/g; in data set [1] (setting [18]), 2.2 %ID/g. Further, the tissue uptake at 2 h in data set [1] (setting [5]) amounted to 4.2 %ID/g; in data set [1] (setting [6]), 0.8 %ID/g; in data set [1] (setting [7]), 1.2 %ID/g; in data set [1] (setting [8]), 5.5 %ID/g; in data set [1] (setting [3]), 12.5 %ID/g; in data set [1] (setting [9]), 3.9 %ID/g. The tissue uptake at 2 h in data set [1] (setting [12]) came out at 2.3 %ID/g; in data set [1] (setting [13]), 0.7 %ID/g; in data set [1] (setting [14]), 0.6 %ID/g; in data set [1] (setting [15]) it was 1.1 %ID/g; in data set [1] (setting [16]) it was 4.4 %ID/g; in data set [1] (setting [17]), 5.4 %ID/g. The tissue uptake at 2 h in data set [1] (setting [18]) turned out to be 1.5 %ID/g. In addition, the tissue to tissue ratio at 1 h was 3 in data set [1] (setting [19]); 0.8 in data set [1] (setting [20]); 0.4 in data set [1] (setting [21]); 6.3 in data set [1] (setting [22]); 3.9 in data set [1] (setting [23]). In addition, the tissue to tissue ratio at 2 h in data set [1] (setting [19]) came to 5.7; in data set [1] (setting [20]), 0.8; in data set [1] (setting [21]), 0.3; in data set [1] (setting [22]) it was 7.2; in data set [1] (setting [23]) it was 3.9. For the same compound, the “DU4475 tumor uptake after two hours as % of the 1 h-value” in data set [2] is reported as “approx. 68%”. Further, the “higher uptake in CMKLR1-positive DU4475 tumors than in target-negative A549 tumors” value in data set [2] was 2.3 fold.
Take `CCCCCCCC(=O)NCCCC[C@H](NC(=O)CN1CCN(CC(=O)O)CCN(CC(=O)O)CCN(CC(=O)O)CC1)C(=O)N[C@@H](Cc1ccc(O)cc1)C(=O)N[C@@H](CC1CCCCC1)C(=O)N1C[C@H](O)C[C@H]1C(=O)NCC(=O)N[C@@H](CCCNC(N)=O)C(=O)N[C@@H](Cc1ccccc1)C(=O)N[C@H](C)C(=O)N1Cc2ccccc2C[C@H]1C(=O)N[C@@H](CO)C(=O)O` [[^68Ga]Ga-DOTA-KCap-CG34, metal not drawn] ({DOTA}-K(Octanoyl)Y[Cha][Hyp]G[Cit]F[dA][Tic]S-OH): the tissue uptake at 1 h is 2.3 %ID/g in data set [1] (setting [4]); 3.3 %ID/g in data set [1] (setting [5]); 0.6 %ID/g in data set [1] (setting [6]); 1.1 %ID/g in data set [1] (setting [7]); 5.8 %ID/g in data set [1] (setting [8]); 2.2 %ID/g in data set [1] (setting [3]). For the same compound, the tissue uptake at 1 h amounted to 1.7 %ID/g in data set [1] (setting [9]); 0.6 %ID/g in data set [1] (setting [10]); 4.9 %ID/g in data set [1] (setting [11]); 2.4 %ID/g in data set [1] (setting [12]); 0.6 %ID/g in data set [1] (setting [13]); 0.9 %ID/g in data set [1] (setting [15]). Moreover, the tissue uptake at 1 h in data set [1] (setting [16]) was determined as 2.3 %ID/g; in data set [1] (setting [18]), 1.4 %ID/g. Further, the tissue uptake at 2 h in data set [1] (setting [5]) is 2.9 %ID/g; in data set [1] (setting [6]), 0.2 %ID/g; in data set [1] (setting [7]), 0.8 %ID/g; in data set [1] (setting [8]), 6.5 %ID/g; in data set [1] (setting [3]) it was 1.8 %ID/g; in data set [1] (setting [9]), 1.2 %ID/g. Besides, the tissue uptake at 2 h in data set [1] (setting [12]) came to 1.7 %ID/g; in data set [1] (setting [13]) it was 0.5 %ID/g; in data set [1] (setting [14]), 0.4 %ID/g; in data set [1] (setting [15]), 0.7 %ID/g; in data set [1] (setting [16]), 1.9 %ID/g; in data set [1] (setting [17]), 4 %ID/g. Also, the tissue uptake at 2 h in data set [1] (setting [18]) was found to be 1.1 %ID/g. In addition, the tissue to tissue ratio at 1 h in data set [1] (setting [19]) amounted to 5.6; in data set [1] (setting [20]), 0.7; in data set [1] (setting [21]), 1.6; in data set [1] (setting [22]), 6.6; in data set [1] (setting [23]) it was 3.7. Besides, the tissue to tissue ratio at 2 h in data set [1] (setting [19]) amounted to 18.2; in data set [1] (setting [20]), 0.6; in data set [1] (setting [21]), 1.8; in data set [1] (setting [22]), 7.2; in data set [1] (setting [23]) it was 4.3. Besides, in data set [2], the “DU4475 tumor uptake after two hours as % of the 1 h-value” is listed as “approx. 88%”. For the same compound, the “higher uptake in CMKLR1-positive DU4475 tumors than in target-negative A549 tumors” value in data set [2] is reported as 1.4 fold.
In the case of `C[C@@H](NC(=O)[C@H](Cc1ccccc1)NC(=O)[C@H](CCCNC(N)=O)NC(=O)CNC(=O)[C@@H]1C[C@@H](O)CN1C(=O)[C@H](CC1CCCCC1)NC(=O)[C@H](Cc1ccc(O)cc1)NC(=O)CCC(=O)NCCCOCCOCCOCCCNC(=O)CN1CCN(CC(=O)O)CCN(CC(=O)O)CCN(CC(=O)O)CC1)C(=O)N1Cc2ccccc2C[C@H]1C(=O)N[C@@H](CO)C(=O)O` [[^68Ga]Ga-DOTA-TTDS-CG34, metal not drawn] ({X1-Suc}-Y[Cha][Hyp]G[Cit]F[dA][Tic]S-OH), in data set [2], the “difference in uptake between target-positive and target-negative tumor” value was “no clear difference in uptake between target-positive and target-negative tumor”.
